Reference: EP4269437A1 (Zhejiang Nanomab Technology Center Co. Ltd., dated 2023)
Changes are numbered by the printed parent chain.

T1: murine PD-1 protein (murine, UniProt Q02242 25-167, limits assumed)
T1 construct: bought
T1 sequence (looked up): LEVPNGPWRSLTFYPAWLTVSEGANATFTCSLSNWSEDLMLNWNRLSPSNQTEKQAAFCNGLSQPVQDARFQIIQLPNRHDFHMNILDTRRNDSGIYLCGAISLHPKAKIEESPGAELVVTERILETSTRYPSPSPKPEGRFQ

T2: ICOS (UniProt Q9Y6W8 21-140, limits assumed)
T2 construct: bought
T2 sequence (looked up): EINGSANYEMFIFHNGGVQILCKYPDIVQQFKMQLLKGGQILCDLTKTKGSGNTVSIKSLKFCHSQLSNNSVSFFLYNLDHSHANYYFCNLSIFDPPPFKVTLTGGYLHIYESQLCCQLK

B1: NB194-P29 (Fc fusion)
heavy: QLQLVESGGGSAQAGGSLTLSCTASGHSFSIYDMGWFRQAADKERESVAVINFGRGTTYYAESVKGRFTISLDSAKNTVYLQMNTLKPEDTAVYSCGIDRRQYGLGIPPLADHWGQGSQVTVSS
notes: not shown: IgG4 constant region of vector pCDNA3.4-IgG4
B2: NB194-P29-z3 (Fc fusion)
heavy: B1 heavy with L2V, S11L, A12V, A14P, T23S, L72R, S74N, T85S, K87R, P88A
notes: as for B1
B3: NB194-P29-z7 (Fc fusion)
heavy: B1 heavy with L2V, S11L, A12V, A14P, T19R, T23S, S74N, T85S, K87R, P88A
notes: as for B1
B4: NB194-P29-z2 (Fc fusion)
heavy: B1 heavy with S11L, A12V, A14P, T19R, T23S, L72R, S74N, T85S, K87R, P88A
notes: as for B1
B5: NB194-P29-z4 (Fc fusion)
heavy: B1 heavy with L2V, S11L, A12V, A14P, T19R, L72R, S74N, T85S, K87R, P88A
notes: as for B1
B6: NB194-P29-z1 (Fc fusion)
heavy: QVQLVESGGGLVQPGGSLRLSCSASGHSFSIYDMGWFRQAADKERESVAVINFGRGTTYYAESVKGRFTISRDNAKNTVYLQMNSLRAEDTAVYSCGIDRRQYGLGIPPLADHWGQGSQVTVSS
notes: as for B1
B7: NB194-P29-z8 (Fc fusion)
heavy: B6 heavy with A41P, D42G
notes: as for B1
B8: NB194-P29-z10 (Fc fusion)
heavy: B6 heavy with Q1E, V2L, S23A
notes: as for B1
B9: NB194-P29-z5 (Fc fusion)
heavy: B6 heavy with A41P
notes: as for B1
B10: NB194-P29-z9 (Fc fusion)
heavy: B6 heavy with H27F, S28T
notes: as for B1
B11: NB194-P29-z6 (Fc fusion)
heavy: B6 heavy with D42G
notes: as for B1
B12: NB194 (Fc fusion)
heavy: QVQLVETGGGLVRAGGSLRLSCTASGRPFSIYDMGWFRQAPDKERESVAVINLSRGDTYYADSVKGRFTISLDSAKNTVYLQMNSLKPEDTAVYSCGVDRRQYGLGIPPLADHWGQGTQVTVSS
notes: as for B1
B13: NB194-z5 (Fc fusion)
heavy: B12 heavy with Q1E, T7S, R13Q, A14P, T23A, D57N, L72R, S74N, K87R, P88A
notes: format not restated; not shown: IgG4 constant region of vector pCDNA3.4-IgG4
B14: NB194-z2 (Fc fusion)
heavy: B12 heavy with Q1E, T7S, R13Q, A14P, T23A, N52S, D57N, L72R, K87R, P88A
notes: as for B13
B15: NB194-z1 (Fc fusion)
heavy: EVQLVESGGGLVQPGGSLRLSCAASGRPFSIYDMGWFRQAPDKERESVAVISLSRGNTYYADSVKGRFTISRDNAKNTVYLQMNSLRAEDTAVYSCGVDRRQYGLGIPPLADHWGQGTQVTVSS
notes: as for B13
B16: NB194-z4 (Fc fusion)
heavy: B15 heavy with S52N, S54A
notes: as for B13
B17: NB182-z4 (Fc fusion)
heavy: EVQLVESGGGLVQPGGSLRLSCSASGDTSFISAAGWYRQAPGKERELVSAITNTGITYYPDSVKGRFTISRDNSKNTVYLQMNNLRAEDTAVYYCNAGAPPPGGLGYDESDYWGQGTQVTVSS
notes: as for B13
B18: NB182-z1 (Fc fusion)
heavy: B17 heavy with N84S
notes: as for B13
B19: NB182-z2 (Fc fusion)
heavy: B17 heavy with S74A, N84S
notes: as for B13
B20: NB182-z5 (Fc fusion)
heavy: B17 heavy with S49A, N84S, Q118L
notes: as for B13
B21: NB182-z3 (Fc fusion)
heavy: B17 heavy with V78L
notes: as for B13
B22: NB182 (Fc fusion)
heavy: B17 heavy with E1Q, P14A, S23A, S49A, S74A, R86K, A87P
notes: as for B1

biological target: T3, PD-1 (UniProt Q15116 25-170, limits assumed); assay: SPR; set-up and antigen form not restated
T3 construct: also called PD-1 protein
T3 sequence (Q15116 25-170 limits assumed): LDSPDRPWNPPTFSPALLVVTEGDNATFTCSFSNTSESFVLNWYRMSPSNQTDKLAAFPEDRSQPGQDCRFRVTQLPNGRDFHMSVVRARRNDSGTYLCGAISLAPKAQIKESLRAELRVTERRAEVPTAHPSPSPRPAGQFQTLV

Kd | koff | kon | Binder
0.151 nM | 4.37e-05 s⁻¹ | 290000 M⁻¹ s⁻¹ | B1
0.202 nM | 3.75e-05 s⁻¹ | 186000 M⁻¹ s⁻¹ | B2
0.15 nM | 2.18e-05 s⁻¹ | 145000 M⁻¹ s⁻¹ | B3
0.129 nM | 1.66e-05 s⁻¹ | 129000 M⁻¹ s⁻¹ | B4
0.222 nM | 2.61e-05 s⁻¹ | 117000 M⁻¹ s⁻¹ | B5
0.263 nM | 3.06e-05 s⁻¹ | 117000 M⁻¹ s⁻¹ | B6
0.235 nM | 2.54e-05 s⁻¹ | 108000 M⁻¹ s⁻¹ | B7
0.179 nM | 1.74e-05 s⁻¹ | 96800 M⁻¹ s⁻¹ | B8
0.2 nM | 2.43e-05 s⁻¹ | 121000 M⁻¹ s⁻¹ | B9
0.406 nM | 5.03e-05 s⁻¹ | 124000 M⁻¹ s⁻¹ | B10
0.268 nM | 3.02e-05 s⁻¹ | 113000 M⁻¹ s⁻¹ | B11

biological target: T4, PD-1.His (UniProt Q15116 25-170, limits assumed); assay: SPR, antibody captured on protein A, PD-1.His in flow
T4 construct: not shown: His tag
T4 sequence (Q15116 25-170 limits assumed): as above

Kd | koff | kon | Binder
0.494 nM | 0.000105 s⁻¹ | 212000 M⁻¹ s⁻¹ | B12
0.598 nM | 7.92e-05 s⁻¹ | 133000 M⁻¹ s⁻¹ | B13
1.01 nM | 9.88e-05 s⁻¹ | 97600 M⁻¹ s⁻¹ | B14
0.837 nM | 0.000107 s⁻¹ | 128000 M⁻¹ s⁻¹ | B15
0.586 nM | 7.79e-05 s⁻¹ | 133000 M⁻¹ s⁻¹ | B16
15 nM | 9.73e-05 s⁻¹ | 6480 M⁻¹ s⁻¹ | B17
8.25 nM | 7.61e-05 s⁻¹ | 9220 M⁻¹ s⁻¹ | B18
8.2 nM | 4.59e-05 s⁻¹ | 5600 M⁻¹ s⁻¹ | B19
14 nM | 9.07e-05 s⁻¹ | 6460 M⁻¹ s⁻¹ | B20
11.8 nM | 7.11e-05 s⁻¹ | 6000 M⁻¹ s⁻¹ | B21
8.67 nM | 6.4e-05 s⁻¹ | 7380 M⁻¹ s⁻¹ | B22

biological target: T5, CTLA-4 (UniProt P16410 36-161, limits assumed); assay: ELISA on coated protein, anti-human Fc HRP
T5 construct: bought
T5 sequence (P16410 36-161 limits assumed): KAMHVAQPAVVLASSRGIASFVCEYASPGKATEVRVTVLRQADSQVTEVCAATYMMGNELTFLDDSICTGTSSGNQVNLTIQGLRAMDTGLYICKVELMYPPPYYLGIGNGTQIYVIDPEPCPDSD

binding result | Binder
no binding | B12
no binding | B22

biological target: T1, murine PD-1 protein; assay: ELISA on coated protein, anti-human Fc HRP

binding result | Binder
no binding (tested: 0.1µg) | B12
no binding (tested: 0.1µg) | B22

biological target: T6, CD28 (UniProt P10747 19-152); assay: ELISA on coated protein, anti-human Fc HRP
T6 construct: bought

binding result | Binder
no binding | B12
no binding | B22

biological target: T2, ICOS; assay: ELISA on coated protein, anti-human Fc HRP

binding result | Binder
no binding | B12
no binding | B22

biological target: T3, PD-1; assay: SPR; set-up and antigen form not restated; remark: another data set of the same source

fold increase in affinity compared to NB194 | Binder
5 fold | B1

biological target: T7, human PD-1.Fc (human, UniProt Q15116 25-170, limits assumed); assay: SPR, antibody captured on protein A, PD-1.Fc in flow
T7 construct: also called PD-1; Fc protein; PD-1.hFc; not shown: human IgG Fc fragment
T7 sequence (Q15116 25-170 limits assumed): as the sequence (Q15116 25-170 limits assumed) above

Kd | koff | kon | Binder
8.67 nM | 6.4e-05 s⁻¹ | 7380 M⁻¹ s⁻¹ | B22

biological target: PD-1 on GS-J2/PD1 effector cells (UniProt Q15116 25-288, limits assumed); assay: cell-based or functional assay
Sequence (Q15116 25-288 limits assumed): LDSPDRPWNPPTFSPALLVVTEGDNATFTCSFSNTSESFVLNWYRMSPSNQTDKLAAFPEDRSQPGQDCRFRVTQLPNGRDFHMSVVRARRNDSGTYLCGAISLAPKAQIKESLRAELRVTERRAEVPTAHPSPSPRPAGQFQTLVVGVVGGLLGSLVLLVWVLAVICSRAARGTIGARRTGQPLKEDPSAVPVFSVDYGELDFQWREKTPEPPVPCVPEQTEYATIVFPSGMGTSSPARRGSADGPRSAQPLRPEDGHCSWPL

Reporter Gene Assay EC50 (luciferase) | Binder
7 nM | B12
16.3 nM | B22

biological target: T3, PD-1; assay: SPR; set-up and antigen form not restated; remark: another data set of the same source

Kd | koff | kon | Binder
0.118 nM | 2.86e-05 s⁻¹ | 243000 M⁻¹ s⁻¹ | B1
0.531 nM | 7.36e-05 s⁻¹ | 139000 M⁻¹ s⁻¹ | B12
